Experiments:
Test in all cases: cell-based or functional assay
[1] = molecular target: HIV-1 Env of CAP244.D3 (HIV-1)
[2] = molecular target: HIV-1 Env of PVO.04 (HIV-1)
[3] = molecular target: HIV-1 Env of DU156.12 (HIV-1)
[4] = molecular target: HIV-1 Env of ZM53.12 (HIV-1)
[5] = molecular target: HIV-1 Env of CNE3 (HIV-1)
[6] = molecular target: HIV-1 Env of WITO.33 (HIV-1)
[7] = molecular target: HIV-1 Env of Q168.a2 (HIV-1)
[8] = molecular target: HIV-1 Env of ZM214.15 (HIV-1)
[9] = molecular target: HIV-1 Env of C1080.c3 (HIV-1)
[10] = molecular target: HIV-1 Env of Q842.d12 (HIV-1)
[11] = molecular target: HIV-1 Env of ZM233.6 (HIV-1)
[12] = molecular target: HIV-1 Env of 96ZM651.02 (HIV-1)
[13] = molecular target: HIV-1 Env of ZM135.10a (HIV-1)
[14] = molecular target: HIV-1 Env of QH0692.42 (HIV-1)
[15] = molecular target: HIV-1 Env of DU172.17 (HIV-1)
[16] = molecular target: HIV-1 Env of TH976.17 (HIV-1)
[17] = molecular target: HIV-1 Env of REJO.67 (HIV-1)
[18] = molecular target: HIV-1 Env of 0260.v5.c36 (HIV-1)
[19] = molecular target: HIV-1 Env of MB539.2B7 (HIV-1)
[20] = molecular target: HIV-1 Env of KER2008.12 (HIV-1)
[21] = molecular target: HIV-1 Env of ZM249.1 (HIV-1)
[22] = molecular target: HIV-1 Env of CAP256.PI (HIV-1)
[23] = molecular target: HIV-1 Env of 6535.3 (HIV-1)
[24] = molecular target: HIV-1 Env of 3016.V5.c36 (HIV-1)
[25] = molecular target: HIV-1 Env of AC10.29 (HIV-1)
[26] = molecular target: HIV-1 Env of UG037.8 (HIV-1)
[27] = molecular target: HIV-1 Env of CAAN.A2 (HIV-1)
[28] = molecular target: HIV-1 Env of ZM109.4 (HIV-1)
[29] = molecular target: HIV-1 Env of CAP256.SU (HIV-1)
[30] = molecular target: HIV-1 Env of Q23.17 (HIV-1)
[31] = molecular target: HIV-1 Env of SC422.8 (HIV-1)
[32] = molecular target: HIV-1 Env of Q769.d22 (HIV-1)
[33] = molecular target: HIV-1 Env of RHPA.7 (HIV-1)
[34] = molecular target: HIV-1 Env of CAP45.G3 (HIV-1)
[35] = molecular target: HIV-1 Env of KER2018.11 (HIV-1)
[36] = molecular target: HIV-1 Env of CM244.ec1 (HIV-1)
[37] = molecular target: HIV-1 Env of 6405.v4.c34 (HIV-1)
[38] = molecular target: HIV-1 Env of RW020.2 (HIV-1)
[39] = molecular target: HIV-1 Env of ZM197.7 (HIV-1)
[40] = molecular target: HIV-1 Env of Q461.e2 (HIV-1)
[41] = molecular target: HIV-1 Env of MB201 (HIV-1)
[42] = molecular target: HIV-1 Env of Q259.d2.17 (HIV-1)
[43] = molecular target: HIV-1 Env of BG505.w6m (HIV-1)
[44] = molecular target: HIV-1 Env of DU422.01 (HIV-1)
[45] = molecular target: HIV-1 Env of TRO.11 (HIV-1)
[46] = molecular target: HIV-1 Env of THRO.18 (HIV-1)
[47] = molecular target: HIV-1 Env of CAP210.E8 (HIV-1)
[48] = molecular target: HIV-1 Env of TRJO.58 (HIV-1)

CAP256-VRC26.28 (antibody)
IC50 (neutralization, TZM-bl) [1]: > 50 µg/mL | IC50 (neutralization, TZM-bl) [2]: 6 µg/mL | IC50 (neutralization, TZM-bl) [3]: 0.171 µg/mL | IC50 (neutralization, TZM-bl) [4]: < 0.0006 µg/mL | IC50 (neutralization, TZM-bl) [5]: > 50 µg/mL | IC50 (neutralization, TZM-bl) [6]: > 50 µg/mL | IC50 (neutralization, TZM-bl) [7]: 0.003 µg/mL | IC50 (neutralization, TZM-bl) [8]: 6.85 µg/mL | IC50 (neutralization, TZM-bl) [9]: 0.012 µg/mL | IC50 (neutralization, TZM-bl) [10]: 0.779 µg/mL | IC50 (neutralization, TZM-bl) [11]: 0.002 µg/mL | IC50 (neutralization, TZM-bl) [12]: > 50 µg/mL | IC50 (neutralization, TZM-bl) [13]: > 50 µg/mL | IC50 (neutralization, TZM-bl) [14]: > 50 µg/mL | IC50 (neutralization, TZM-bl) [15]: > 50 µg/mL | IC50 (neutralization, TZM-bl) [16]: > 50 µg/mL | IC50 (neutralization, TZM-bl) [17]: > 50 µg/mL | IC50 (neutralization, TZM-bl) [18]: > 50 µg/mL | IC50 (neutralization, TZM-bl) [19]: 29.4 µg/mL | IC50 (neutralization, TZM-bl) [20]: 0.76 µg/mL | IC50 (neutralization, TZM-bl) [21]: 0.082 µg/mL | IC50 (neutralization, TZM-bl) [22]: > 50 µg/mL | IC50 (neutralization, TZM-bl) [23]: > 50 µg/mL | IC50 (neutralization, TZM-bl) [24]: 0.008 µg/mL | IC50 (neutralization, TZM-bl) [25]: > 50 µg/mL | IC50 (neutralization, TZM-bl) [26]: > 50 µg/mL | IC50 (neutralization, TZM-bl) [27]: > 50 µg/mL | IC50 (neutralization, TZM-bl) [28]: > 50 µg/mL | IC50 (neutralization, TZM-bl) [29]: < 0.0006 µg/mL | IC50 (neutralization, TZM-bl) [30]: 0.005 µg/mL | IC50 (neutralization, TZM-bl) [31]: > 50 µg/mL | IC50 (neutralization, TZM-bl) [32]: > 50 µg/mL | IC50 (neutralization, TZM-bl) [33]: > 50 µg/mL | IC50 (neutralization, TZM-bl) [34]: 0.016 µg/mL | IC50 (neutralization, TZM-bl) [35]: < 0.0006 µg/mL | IC50 (neutralization, TZM-bl) [36]: 0.64 µg/mL | IC50 (neutralization, TZM-bl) [37]: > 50 µg/mL | IC50 (neutralization, TZM-bl) [38]: > 50 µg/mL | IC50 (neutralization, TZM-bl) [39]: 0.193 µg/mL | IC50 (neutralization, TZM-bl) [40]: 1.59 µg/mL | IC50 (neutralization, TZM-bl) [41]: > 50 µg/mL | IC50 (neutralization, TZM-bl) [42]: 0.012 µg/mL | IC50 (neutralization, TZM-bl) [43]: 0.044 µg/mL | IC50 (neutralization, TZM-bl) [44]: 0.075 µg/mL | IC50 (neutralization, TZM-bl) [45]: > 50 µg/mL | IC50 (neutralization, TZM-bl) [46]: > 50 µg/mL | IC50 (neutralization, TZM-bl) [47]: < 0.0006 µg/mL | IC50 (neutralization, TZM-bl) [48]: > 50 µg/mL

CAP256-VRC26.29 (antibody)
IC50 (neutralization, TZM-bl) [1]: > 50 µg/mL | IC50 (neutralization, TZM-bl) [2]: 4 µg/mL | IC50 (neutralization, TZM-bl) [3]: 0.136 µg/mL | IC50 (neutralization, TZM-bl) [4]: 0.001 µg/mL | IC50 (neutralization, TZM-bl) [5]: > 50 µg/mL | IC50 (neutralization, TZM-bl) [6]: > 50 µg/mL | IC50 (neutralization, TZM-bl) [7]: 0.007 µg/mL | IC50 (neutralization, TZM-bl) [8]: 13.6 µg/mL | IC50 (neutralization, TZM-bl) [9]: 0.009 µg/mL | IC50 (neutralization, TZM-bl) [10]: 1.69 µg/mL | IC50 (neutralization, TZM-bl) [11]: 0.003 µg/mL | IC50 (neutralization, TZM-bl) [12]: > 50 µg/mL | IC50 (neutralization, TZM-bl) [13]: > 50 µg/mL | IC50 (neutralization, TZM-bl) [14]: > 50 µg/mL | IC50 (neutralization, TZM-bl) [15]: > 50 µg/mL | IC50 (neutralization, TZM-bl) [16]: > 50 µg/mL | IC50 (neutralization, TZM-bl) [17]: > 50 µg/mL | IC50 (neutralization, TZM-bl) [18]: > 50 µg/mL | IC50 (neutralization, TZM-bl) [19]: 13.3 µg/mL | IC50 (neutralization, TZM-bl) [20]: 0.684 µg/mL | IC50 (neutralization, TZM-bl) [21]: 0.093 µg/mL | IC50 (neutralization, TZM-bl) [22]: > 50 µg/mL | IC50 (neutralization, TZM-bl) [23]: > 50 µg/mL | IC50 (neutralization, TZM-bl) [24]: 0.012 µg/mL | IC50 (neutralization, TZM-bl) [25]: 20.4 µg/mL | IC50 (neutralization, TZM-bl) [26]: > 50 µg/mL | IC50 (neutralization, TZM-bl) [27]: > 50 µg/mL | IC50 (neutralization, TZM-bl) [28]: > 50 µg/mL | IC50 (neutralization, TZM-bl) [29]: < 0.0006 µg/mL | IC50 (neutralization, TZM-bl) [30]: 0.023 µg/mL | IC50 (neutralization, TZM-bl) [31]: > 50 µg/mL | IC50 (neutralization, TZM-bl) [32]: > 50 µg/mL | IC50 (neutralization, TZM-bl) [33]: > 50 µg/mL | IC50 (neutralization, TZM-bl) [34]: 0.076 µg/mL | IC50 (neutralization, TZM-bl) [35]: < 0.0006 µg/mL | IC50 (neutralization, TZM-bl) [36]: 1.13 µg/mL | IC50 (neutralization, TZM-bl) [37]: > 50 µg/mL | IC50 (neutralization, TZM-bl) [38]: > 50 µg/mL | IC50 (neutralization, TZM-bl) [39]: 0.136 µg/mL | IC50 (neutralization, TZM-bl) [40]: 2 µg/mL | IC50 (neutralization, TZM-bl) [41]: > 50 µg/mL | IC50 (neutralization, TZM-bl) [42]: 0.019 µg/mL | IC50 (neutralization, TZM-bl) [43]: 0.046 µg/mL | IC50 (neutralization, TZM-bl) [44]: 0.072 µg/mL | IC50 (neutralization, TZM-bl) [45]: > 50 µg/mL | IC50 (neutralization, TZM-bl) [46]: > 50 µg/mL | IC50 (neutralization, TZM-bl) [47]: < 0.0006 µg/mL | IC50 (neutralization, TZM-bl) [48]: > 50 µg/mL

Source: patent publication US20200199204A1
